{"source": "paper PMC10812501", "about": "“Repurposing Glutathione Transferases: Directed Evolution Combined with Chemical Modification for the Creation of a Semisynthetic Enzyme with High Hydroperoxidase Activity” (Antioxidants, 2023)", "proteins": {"B1": {"name": "GmGSTU4-4 (Glycine max) (protein)", "chain": "MSDEVVLLDFWPSPFGMRVRIALAEKGIKYEYKEEDLRNKSPLLLQMNPVHKKIPVLIHNGKPICESLIAVQYIEEVWNDRNPLLPSDPYQRAQTRFWADYVDKKIYDLGRKIWTSKGEEKEAAKKEFIEALKLLEEQLGDKTYFGGDNLGFVDIALVPFYTWFKAYETFGTLNIESECPKFIAWAKRCLQKESVAKSLPDQQKVYEFIMDLRKKLGIE", "notes": "dimer; Sh14 = shuffled variant differing by four point changes (R38Q/Q46K/W114C/I183V)"}, "B2": {"name": "GmGSTU4-4 (Glycine max; I183V/Q46K/R38Q/W114C) (protein)", "chain": "B1 chain with R38Q, Q46K, W114C, I183V", "notes": "as for B1"}}, "key": {"[1]": {"substrate": "CC(C)(OO)c1ccccc1", "assay": "steady-state kinetics, coupled glutathione reductase/NADPH hydroperoxidase assay", "format": "biochemical, Glycine max", "settings": "GSH 1.0 mM fixed, sodium phosphate 50 mM pH 7.0, 1 mM EDTA", "text": "steady-state kinetics, coupled glutathione reductase/NADPH hydroperoxidase assay on GmGSTU4-4"}, "[2]": {"substrate": "CC(C)(OO)c1ccccc1", "assay": "steady-state kinetics, coupled glutathione reductase/NADPH hydroperoxidase assay", "format": "biochemical, Glycine max", "settings": "Sh14 shuffled variant, GSH 1.0 mM fixed, sodium phosphate 50 mM pH 7.0, 1 mM EDTA"}}, "note": "Where a chain is given by its changes, count along the chain named. Names may count otherwise."}
{"protein": "B1", "values": [{"measurement": "Km", "setting": "[1]", "result": "454.3 ± 83.6", "unit": "µM"}, {"measurement": "kcat", "setting": "[1]", "result": "0.178 ± 0.0167", "unit": "s⁻¹"}]}
{"protein": "B2", "values": [{"measurement": "Km", "setting": "[2]", "result": "255.8 ± 46.4", "unit": "µM"}, {"measurement": "kcat", "setting": "[2]", "result": "0.593 ± 0.0617", "unit": "s⁻¹"}]}
